Positions count from the first letter of the chain named. Numbers in names are those of the source.
B1: B21H4-45 (antibody, human IgG4 S228P, kappa)
heavy: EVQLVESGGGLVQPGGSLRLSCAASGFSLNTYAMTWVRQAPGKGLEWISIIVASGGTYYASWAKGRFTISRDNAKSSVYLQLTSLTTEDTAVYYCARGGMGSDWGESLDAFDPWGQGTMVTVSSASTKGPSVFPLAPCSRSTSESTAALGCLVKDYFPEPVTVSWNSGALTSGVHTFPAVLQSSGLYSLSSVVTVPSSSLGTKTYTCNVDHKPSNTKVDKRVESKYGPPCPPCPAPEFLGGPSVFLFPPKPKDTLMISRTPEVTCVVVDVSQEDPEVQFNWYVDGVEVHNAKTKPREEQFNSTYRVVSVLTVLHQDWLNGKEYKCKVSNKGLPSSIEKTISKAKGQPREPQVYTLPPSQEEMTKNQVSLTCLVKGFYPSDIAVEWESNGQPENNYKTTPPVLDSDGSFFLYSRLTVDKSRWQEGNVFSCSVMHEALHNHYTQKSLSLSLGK
light: DIQMTQTPSTVEASVGGTVTITCQASGNIYSFLAWYQQKPGQPPKLLIYTASNLETGVPSRFSGSGSGTEYTLTISGLQSDDAATYYCLGGLYSSDVSYAFGGGTEVVVKRTVAAPSVFIFPPSDEQLKSGTASVVCLLNNFYPREAKVQWKVDNALQSGNSQESVTEQDSKDSTYSLSSTLTLSKADYEKHKVYACEVTHQGLSSPVTKSFNRGEC
notes: humanized IgG4/kappa, VH4+VL5; transfection supernatant
B2: B21H4-51 (antibody, human IgG4 S228P, kappa, V domains shown)
VH: QVQLEESGGRLVQPGTSLRLSCAVSGFSLNTYAMTWVRQAPGKGLEWIGIIVASGGTYYASWAKGRFTISRDTSKNTLYLQITSLRAEDTATYFCARGGMGSDWGESLDAFDPWGQGTLVTVSS
VL: DIQMTQSPSTLSASVGDRVTITCQASGNIYSFLAWYQQKPGKAPKLLIYTASNLETGVPSRFSGSGSGTEYTLTISSLQPDDFATYYCLGGLYSSDVSYAFGPGTKVEIKR
notes: humanized IgG4/kappa, VH5+VL1; transfection supernatant
B3: B21H4-53 (antibody, human IgG4 S228P, kappa, V domains shown)
VH: B2 VH
VL: B2 VL with Q3V, T10S, L11V, E70D, Y71F, D81E, P103G, E108V
notes: humanized IgG4/kappa, VH5+VL3; transfection supernatant
B4: B21H4-54 (antibody, human IgG4 S228P, kappa, V domains shown)
VH: B2 VH
VL: B2 VL with I2V, Q3V, L11V, I21L, K42Q, A43P, S60D, E70D, P80A, P103Q
notes: humanized IgG4/kappa, VH5+VL4; transfection supernatant
B5: B21A4 (antibody, human IgG4 S228P, kappa)
heavy: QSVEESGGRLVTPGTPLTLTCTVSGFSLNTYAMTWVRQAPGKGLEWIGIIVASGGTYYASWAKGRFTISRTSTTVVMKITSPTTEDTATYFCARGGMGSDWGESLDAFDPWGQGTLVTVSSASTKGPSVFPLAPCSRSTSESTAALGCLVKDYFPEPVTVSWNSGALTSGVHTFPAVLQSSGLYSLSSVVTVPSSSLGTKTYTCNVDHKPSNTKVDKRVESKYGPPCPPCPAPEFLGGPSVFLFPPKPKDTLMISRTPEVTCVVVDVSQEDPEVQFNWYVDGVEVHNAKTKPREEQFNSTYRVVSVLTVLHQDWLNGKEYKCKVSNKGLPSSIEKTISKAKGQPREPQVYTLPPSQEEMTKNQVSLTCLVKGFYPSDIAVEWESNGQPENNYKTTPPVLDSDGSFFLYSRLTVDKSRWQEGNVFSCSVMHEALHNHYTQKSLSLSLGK
light: B1 light with Q3V, S9A, T10S, S14A, T22N, L78V, S80C
notes: Rabbit/human chimera, human IgG4/kappa; 3 is used here; also called B21A chimera IgG4; Clone B21A4
B6: B21H4-13 (antibody, human IgG4 S228P, kappa)
heavy: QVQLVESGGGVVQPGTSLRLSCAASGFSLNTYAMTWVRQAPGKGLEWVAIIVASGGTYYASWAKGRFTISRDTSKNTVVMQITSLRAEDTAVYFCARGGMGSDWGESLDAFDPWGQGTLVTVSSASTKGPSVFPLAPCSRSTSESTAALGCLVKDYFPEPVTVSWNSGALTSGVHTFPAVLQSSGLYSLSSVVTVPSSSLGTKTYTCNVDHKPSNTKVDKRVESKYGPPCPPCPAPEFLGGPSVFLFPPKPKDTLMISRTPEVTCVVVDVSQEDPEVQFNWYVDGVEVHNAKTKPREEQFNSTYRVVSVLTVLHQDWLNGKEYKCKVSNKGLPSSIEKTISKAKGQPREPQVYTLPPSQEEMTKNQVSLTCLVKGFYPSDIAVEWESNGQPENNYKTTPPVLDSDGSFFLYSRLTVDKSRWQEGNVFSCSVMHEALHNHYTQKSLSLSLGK
light: DIVMTQSPSSVSASVGDRVTITCQASGNIYSFLAWYQQKPGKAPKLLIYTASNLETGVPSRFSGSGSGTDFTLTISSLQPEDFATYYCLGGLYSSDVSYAFGGGTKVVIKRTVAAPSVFIFPPSDEQLKSGTASVVCLLNNFYPREAKVQWKVDNALQSGNSQESVTEQDSKDSTYSLSSTLTLSKADYEKHKVYACEVTHQGLSSPVTKSFNRGEC
notes: humanized IgG4/kappa, VH1+VL3; transfection supernatant
B7: B21H4-14 (antibody, human IgG4 S228P, kappa)
heavy: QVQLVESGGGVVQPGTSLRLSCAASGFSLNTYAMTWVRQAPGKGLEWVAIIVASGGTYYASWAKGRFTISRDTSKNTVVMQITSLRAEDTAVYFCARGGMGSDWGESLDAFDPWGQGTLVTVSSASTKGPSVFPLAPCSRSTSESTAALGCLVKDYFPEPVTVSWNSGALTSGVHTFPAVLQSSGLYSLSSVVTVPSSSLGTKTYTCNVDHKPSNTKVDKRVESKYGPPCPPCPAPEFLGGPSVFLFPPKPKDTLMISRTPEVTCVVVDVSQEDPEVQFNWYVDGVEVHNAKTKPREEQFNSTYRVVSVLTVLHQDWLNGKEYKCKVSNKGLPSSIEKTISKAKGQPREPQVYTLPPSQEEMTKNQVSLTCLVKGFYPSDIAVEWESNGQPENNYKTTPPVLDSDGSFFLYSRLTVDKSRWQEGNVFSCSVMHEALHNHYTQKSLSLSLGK
light: DVVMTQSPSTVSASVGDRVTLTCQASGNIYSFLAWYQQKPGQPPKLLIYTASNLETGVPDRFSGSGSGTDYTLTISSLQADDFATYYCLGGLYSSDVSYAFGQGTKVEIKRTVAAPSVFIFPPSDEQLKSGTASVVCLLNNFYPREAKVQWKVDNALQSGNSQESVTEQDSKDSTYSLSSTLTLSKADYEKHKVYACEVTHQGLSSPVTKSFNRGEC
notes: humanized IgG4/kappa, VH1+VL4; transfection supernatant

These binders were tested against T1, recombinant human LILRB1-His (human, UniProt Q8NHL6 24-458) (assay: MSD ELISA, coated antigen, transfection supernatant).
T1 construct: Bought protein; also called LILRB1 protein
T1 sequence (Q8NHL6 24-458 limits assumed): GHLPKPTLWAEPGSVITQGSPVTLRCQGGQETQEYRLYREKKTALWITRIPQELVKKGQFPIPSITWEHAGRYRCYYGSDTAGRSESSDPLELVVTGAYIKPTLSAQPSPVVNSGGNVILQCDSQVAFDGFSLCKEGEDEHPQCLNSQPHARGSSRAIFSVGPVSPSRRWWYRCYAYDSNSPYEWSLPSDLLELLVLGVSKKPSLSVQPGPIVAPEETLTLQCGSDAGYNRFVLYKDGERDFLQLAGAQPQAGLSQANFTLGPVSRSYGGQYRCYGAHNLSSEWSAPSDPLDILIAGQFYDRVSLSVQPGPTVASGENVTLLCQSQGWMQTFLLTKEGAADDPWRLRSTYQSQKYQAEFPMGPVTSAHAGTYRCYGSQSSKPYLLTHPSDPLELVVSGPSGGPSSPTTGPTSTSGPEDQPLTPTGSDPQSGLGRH
Protocol: (§1) To confirm binding to human LILRB1 and human LILRB2, transfection supernatants (obtained in Example 2) were evaluated for binding by ELISA. The conditioned media from these transient transfections were assayed for human IgG concentration by AlphaLISA® immunoassay (PerkinElmer, No. AL310C) (Table 4). A plate-based MSD ELISA was performed in which human LILRB1-His or LILRB2-His was immobilized, and binding of transfection supernatants of humanized mAb variants was detected via an anti-human IgG Sulfo-tag-labeled secondary antibody. The IgG1 version of the parental rabbit/human chimera (designated B21A1) transfection served as the benchmark EC₅₀ positive control.
(§2) Recombinant human and cynomolgus LILRB1 proteins (R&D Systems, No. 8989-T2-050; ACROBiosystems, No. CDJ-C52H3) and recombinant human and cynomolgus LILRB2 proteins (ACROBiosystems, No. LI2-H5220; No. L12-C52H3) were diluted in PBS to 4 μg/mL and added to a multi-array 384-well high-binding plates (MSD, No. L21XA4) at 10 μL/well and incubated at 4° C. overnight. The plates were washed several times with Wash Buffer (0.05% Tween® 20 in PBS), using a microplate washer and then blocked with 70 μL/well of 5% BSA in PBS for 1 hour (h) at room temperature (RT) with shaking at 700 rpm. After blocking, 20 μL/well of anti-LILRB2/LILRB1 antibodies or isotype control were added to the plates, and the plates were sealed and incubated for 2 h at RT with shaking at 700 rpm. After primary antibody binding, plates were washed five times with 70 μL/well of Wash Buffer (0.05% Tween® 20 in PBS) using a microplate washer. Secondary detection antibody (SULFO-TAG™-labeled goat anti-human IgG antibody (MSD, No. R32AJ-1)) was diluted to 4 μg/mL in assay diluent (1% BSA in PBS) and 10 μL/well was added to plates and incubated at RT protected from light for 1 h, with shaking at 700 rpm. Following incubation, plates were washed five times with Wash Buffer, using a microplate washer. After removal of the final wash, 35 μL/well of MSD Gold Read Buffer B (MSD, No. R60AM-4) was added to all wells using a Multidrop combo washer/dispenser, and plates were read using MESO Sector 600MM instrument (MSD) within 5 minutes (min) after addition of Read Buffer. Signals as counts per minute (cpm) were recorded.
For B1, the EC50 was 4.7 ng/mL.
With B2 the EC50 was 3.88 ng/mL.
In the case of B3, the EC50 is reported as 4.7 ng/mL.
B4 gave an EC50 of 4.85 ng/mL.
Binder B5 has an EC50 of 3.73 ng/mL.
With B6 the EC50 was 1.5 ng/mL.
Binder B7 has an EC50 of 1.3 ng/mL.

The binders below were run against T2, recombinant human LILRB2-His (human, UniProt Q8N423 22-461, limits assumed) in the same assay as above.
T2 construct: Bought protein; also called LILRB2 protein
T2 sequence (Q8N423 22-461 limits assumed): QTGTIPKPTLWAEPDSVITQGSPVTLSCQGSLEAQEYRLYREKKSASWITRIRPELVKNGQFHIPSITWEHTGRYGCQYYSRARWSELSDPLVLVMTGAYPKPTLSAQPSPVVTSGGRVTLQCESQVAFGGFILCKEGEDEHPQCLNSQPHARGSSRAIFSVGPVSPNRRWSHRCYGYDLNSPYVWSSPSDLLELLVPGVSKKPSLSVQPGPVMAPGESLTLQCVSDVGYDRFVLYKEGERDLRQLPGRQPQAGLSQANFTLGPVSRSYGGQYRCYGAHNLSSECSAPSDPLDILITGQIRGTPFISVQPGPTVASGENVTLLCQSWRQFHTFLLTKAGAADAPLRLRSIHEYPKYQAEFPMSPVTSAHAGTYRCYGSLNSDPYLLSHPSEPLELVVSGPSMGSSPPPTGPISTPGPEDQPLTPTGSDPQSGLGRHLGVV
Protocol: as §1, §2
B1 was tested, and the EC50 was 0.26 ng/mL.
B2 showed an EC50 of 2.51 ng/mL.
B3 gave an EC50 of 1.67 ng/mL.
Binder B4 has an EC50 of 2.75 ng/mL.
Binder B5 has an EC50 of 2.63 ng/mL.
With B6 the EC50 was 1.01 ng/mL.
For B7, the EC50 was 1.46 ng/mL.
